Results: the RNAGym collection of RNA variant scans (doi:10.7554/elife.80360)

B1: CPEB3 Ribozyme (parent)
chain: GGGGGCCACAGCAGAAGCGUUCACGUCGCGGCCCCUGUCAGAUUCUGGUGAAUCUGCGAAUUCUGCUGU

Variants of: B1
Test: self-cleavage, relative activity (ratio to wild type); higher = more cleavage; co-transcriptional

Variant	self-cleavage
A16G G37U	0.216
A16G G37C	0.146
G17C C35A	0.135
G17A A60U	0.203
A16U A52G	0.888
A16U A40G	0.754
A16U G17A	0.203
A16U G17U	0.147
A16U A59U	0.381
G17C G30U	0.206
G17C G30C	0.134
G17C G30A	0.154
G17A U62C	0.193
G17A U62G	0.198
G17A A40C	0.145
G17A A40U	0.2
A16G G25U	0.174
A16G G25C	0.257
A16G G25A	0.283
G17C G25U	0.107
G17C G25C	0.12
G17C G25A	0.15
A16G U36C	0.724
A16U C29A	0.288

Variant	self-cleavage
A16U C29G	0.243
A16U	0.888
A16U U69C	1.02
A16U U69A	0.923
A16U C57U	0.196
A16U C57G	0.246
G17C A51U	0.173
G17C A51G	0.126
G17A C54G	0.187
G17A C54U	0.488
G17A C54A	0.236
A16U G48C	0.889
A16U G48A	0.862
G17C C57A	0.147
G17C C57U	0.18
A16G U46G	0.969
A16G U46C	0.728
A16U C18A	0.0736
G17A G58A	0.259
G17A G58C	0.454
G17A G58U	0.539
G17C C24G	0.208
G17C C24U	0.109
G17C C24A	0.141

Variant	self-cleavage
G17C C32A	0.113
G17C C32U	0.136
G17A C33U	0.43
A16U C34G	0.353
A16U C34U	0.892
A16U C34A	0.4
A16G U64G	0.727
A16G U64A	0.645
G17A A52G	0.596
G17A A52U	0.519
A16G U67C	0.935
A16G U67G	0.951
G17C A40C	0.16
G17C A40G	0.124
G17C A40U	0.14
A16U G31A	0.482
A16G U53C	0.622
A16U G58A	0.866
A16U G58C	0.756
G17C A52U	0.133
G17C A52G	0.196
G17A C57U	0.197
G17A C57A	0.145
G17A C57G	0.227

Variant	self-cleavage
A16G G31U	0.309
A16G G31C	0.147
A16G G31A	0.527
A16U C45A	0.842
G17A C24A	0.221
G17A C24G	0.116
G17A U26C	0.335
G17A U26G	0.413
G17C C29A	0.367
G17A U69C	0.883
G17A U69G	0.677
A16G U21C	0.777
A16G U21G	0.395
G17A C66G	0.233
G17A C66U	0.347
G17A C66A	0.226
A16G U26G	0.848
A16G U26A	0.801
G17A U44A	0.397
G17A U44G	0.302
G17A U44C	0.255
G17C A60G	0.127
G17C A60C	0.109
G17C A60U	0.183

Variant	self-cleavage
G17A U46C	0.417
G17C C33A	0.152
G17C C33U	0.139
A16U C24A	0.23
G17A A51G	0.455
G17A A51C	0.452
A16U G28C	0.166
A16U G28A	0.0797
A16U G28U	0.131
A16U G19A	0.13
A16U G19U	0.164
A16G G48U	0.974
A16G G48C	0.892
A16G G48A	0.964
A16U G56U	0.624
A16U G56C	0.82
A16U G56A	0.616
A16G G50U	0.994
A16U G68U	0.948
A16U G68C	0.875
G17C G47C	0.212
G17A C63G	0.257
G17A C63A	0.171
A16U U55G	0.335

Variant	self-cleavage
G17A C22G	0.127
G17A C22A	0.157
A16U U67A	0.877
A16U U67G	0.9
A16G G58C	0.95
G17A U53G	0.38
G17A U53A	0.237
G17A U53C	0.22
G17A U20C	0.0978
G17C A23G	0.116
G17C A23U	0.103
G17C A23C	0.178
A16U U36C	0.438
A16U U36A	0.166
G17C G31U	0.103
G17C G31C	0.14
G17A U61G	0.237
A16G G28C	0.0652
A16U U21A	0.839
A16U U49A	0.96
A16U U49G	0.817
A16U U49C	0.834
G17A G28A	0.145
G17A G28U	0.139

Variant	self-cleavage
G17C C22A	0.117
G17C C22G	0.156
A16U U26C	0.812
A16U U26A	0.221
A16G U62A	0.712
A16G U62C	0.788
A16G U69A	1.04
A16G U69G	1.04
G17A G31U	0.113
G17A G31C	0.135
G17A G50U	0.547
G17A G50A	0.488
G17A G50C	0.387
A16U G37A	0.154
A16U G37U	0.173
G17A G68U	0.751
G17A G68A	0.843
G17A G68C	0.704
G17A G37A	0.153
G17A G37C	0.149
G17C G19C	0.118
G17C G19A	0.103
G17C G19U	0.0627
